From the DeepSol protein solubility set

Experiment: soluble on expression in E. coli; label from the status in PepcDB or PDB records

Row | Sequence | soluble on expression in E. coli
1 | MEKERETLQAWKERVGQELDRVMAFWLEHSHDREHGGFFTCLGRDGRVYDDLKYVWLQGRQVWMYCRLYRKLERFHRPELLDAAKAGGEFLLRHARVAPPEKKCAFVLTRDGRPVKVQRSIFSECFYTMAMNELWRVTAEARYQSEAVDMMDQIVHWVREDPSGLGRPQLPGAVASESMAVPMMLLCLVEQLGEEDEELAGRYAQLGHWCARRILQHVQRDGQAVLENVSEDGEELSGCLGRHQNPGHALEAGWFLLRHSSRSGDAKLRAHVIDTFLLLPFRSGWDADHGGLFYFQDADGLCPTQLEWAMKLWWPHSEAMIAFLMGYSESGDPALLRLFYQVAEYTFRQFRDPEYGEWFGYLNREGKVALTIKGGPFKGCFHVPRCLAMCEEMLSALLSRLA | soluble
2 | MNNMTDLKAIQARSLEMAEYFVAFCKEHDLLCYLCGGGAIGALRNKGFIPWDDDLDFFMPRKDYEKLAELWPRYADERYFLSKSHKDFVDRNLFITIRDKKTTCIKPYQQDLDLPHGLALDVLPLDYYPKNPAERKKQVRWALIYSLFCAQTIPEKHGDLMKWGSRILLGLTPKSLRYRIWKKAEKEMTKYDLADCDGITELCSGPGYMRNKYPITSFEDNLFLPFEGTEMPIPIGYDVYLRTAFGDYMTPPPADKQVPHHDAVIADMDKSYTEYKGEYGGLEHHHHHH | soluble
3 | MGSDKIHHHHHHMAKIAYILLCHKDPDAIIMQAERLTAAGDYMSIHFDARARKADFARIRKALADNPNVTFARRRIKCGWGEWSLVQATLNAIEAAVDEFPRATHFYMLSGDCMAIKTAEYAHSFLDAQDKDYIESFDYFESDWIKTGWKEERLIYRHWFNERTQKRRFYAMFQAQKRLGLTREIPSDIQVMIGSQWWCLRRRTIEWILDFTRKRRDVMQFFATTWIPDETFFQTLVRHLIPEDEIDPRTLTFLMFSDYGMPVSFYNDHYDLLLSQDFLFARKISPEAKELKARLGRLYAAHGVQFQISNEGRNLYKFLTGRGRIGRRFSMRFWETESTLGRERELMILVCKKWHVAKRLLDQIRQVTNVPSIEYLFNEEGTPLPDLGGIQATLEKRTRHRRALMRMLFEYFDTDRLVICLDPTNLELMHDFFSDRSVTRMLEIECQFTDEYLIGHSYRVGLAGERTPKATLERLLPTIRNEMTYEADRIRDAGFARYGRIHQTSTPEENADKVAEFLSIPWDQALRITQTDHLFAD | not soluble
4 | MKRILVSGGAGFIGSHLCTRLVNEGHDVICLDNFFTGSKDNIKHLMGNHHFEVVRHDVTYPYSAEVDEIYNLACPASPIHYQHDPIQTAKTSVMGAINMLGLAMRLDAKILQASTSEVYGDPIIHPQPESYWGNVNPVGYRSCYDEGKRCAETLFMDYYRQNQTRIKIIRIFNTYGPRMLPNDGRVVSNFIIQALNNEDITIYGDGKQTRSFQYIDDLIEGMVRMMDTEDDFTGPINIGNPNEFPVLELAERVIRMTGSTSKIVFKPLPTDDPKQRQPDIKLAKEKLGWQPTVELEDGLKRMIEYFKNV | not soluble
5 | SNLLYKRWVERCRNIVDKLSEDRIGYVHVKGMDSQSFREVYSEVLGRCRNKEAIIVDTRHNGGGWLHDDLATLLSGKEYQRFVPRGQYIGSDPFNKWLKPSCVLVCEDNYSNAHGFPWVYKELKIGKLIGAPVPGTMTAVWWENQIDPSIVFGIPQVGCMDMRGQYAENHQLSPDIEVYNTPEKALAGEDQQLEAAVQEMLKTIGEKK | not soluble
6 | MLQIIVPMAGAGSRFAVAGYTDPKPLIPVHGVPMIKVVIDNLTPDCPHRFIFICQAEQVAAYGLREKLNAWAPGCGIVELGGLTGGAACTVYAARHLINYDQQVMIANSDQYVDVDINAYLHAMNECDAAGLIMTMKASDPKWSFVGFDSQGHINRVVEKEVISDEATVGIYNFRSGGQLVSAIEAMVLKDLRVNGEFYVAPAYNELIEQGAKVIHYSIGAEGHGMYGLGIPVDLNLFLSLPLSRQAASGVGNLEHHHHHH | not soluble
7 | MKQPFTQAIENAELAIRNADERNDIFSELLEGLGVGPVAGEVLLGGLNASPKLMQHAEQELIEEVQRRRQQQHQLQGVQGKRRKRPTMMRGMVILEHHHHHH | not soluble
8 | MGSSHHHHHHSSGLVPRGSHMNKPIGVIDSGVGGLTVAKEIMRQLPNETIYYLGDIGRCPYGPRPGEQVKQYTVEIARKLMEFDIKMLVIACNTATAVALEYLQKTLSISVIGVIEPGARTAIMTTRNQNVLVLGTEGTIKSEAYRTHIKRINPHVEVHGVACPGFVPLVEQMRYSDPTITSIVIHQTLKRWRNSESDTVILGCTHYPLLYKPIYDYFGGKKTVISSGLETAREVSALLTFSNEHASYTEHPDHRFFATGDTTHITNIIKEWLNLSVNVERISVND | soluble
9 | MRLILPVGLIATTLAIAPVRFDREKVFRVKPQDEKQADIIKDLAKTNELDFWYPGATHHVAAKMMVDFRVSEKESQAIQSALDQNKMHYEILIHDLQEEIEKQFDVKEDIPGRHSYAKYNNWEKIVAWTEKMMDKYPEMVSRIKIGSTVEDNPLYVLKIGEKNERRKAIFMDCGIHAREWVSPAFCQWFVYQATKTYGRNKIMTKLLDRMNFYILPVFNVDGYIWSWTKNRMWRKNRSKNQNSKCIGTDLNRNFNASWNSIPNTNDPCADNYRGSAPESEKETKAVTNFIRSHLNEIKVYITFHSYSQMLLFPYGYTSKLPPNHEDLAKVAKIGTDVLSTRYETRYIYGPIESTIYPISGSSLDWAYDLGIKHTFAFELRDKGKFGFLLPESRIKPTCRETMLAVKFIAKYILKHTS | soluble
10 | MAHHHHHHMGNTNSSADRSNADDRGVHSEFMYRYETTKKLKLSYMMLKKNVATAVMTMEVTPQHLRDVGTGYSNVCACLKHGGSGGTNSCIQGQAAGREQASISRSRIDREFADESYKGFQTFCEAMDDIKAGVCVTSRTAIHERITVELDRMVLTAERVLKQGRKTMRSMAHFTKVARQVSRRERAAVDQGKDLSSSKRYAKAVKERNEKESLYKTELEAFDQLYEHVMVVSQEFCSSTTDIFLDCIVGYYREIVATIDVSDTPQCSRLQSRFRSREREVVLHQASDAGFCAMPAGHMDGSKSLSSTVPLKWD | soluble
11 | MGSDKIHHHHHHMKVLLYLEAEEYLKKSGIGRAIKHQEKALQIAGIDYTTNPTDDFDLVHMNTYGIRSWLLMSKAKKTGKKVIMHGHSTEEDFRNSFIGSNLVSPLFKWYLCRFYQKADAIITPTDYSKQLIKAYGIKKPIFVLSNGIDLSRYQRSEKKESAFRHYFHLSKDDKVVMGAGLYFMRKGIDQFVEVAAKMPDIRFIWFGETNKWVIPRKVRQIVTKQHPSNVTFAGYIKGDVYEGAMSASDAFFFPSREETEGIVVLEALASHQHVVLRDIPVYHGWVTEDSVELATDVDGFVEKLDKVLSGKSDKIKEGYHVAESRSIERIAHELASVYQKVMEL | not soluble
12 | MGHHHHHHSHMAALKEDRSYGLSCGRVSDGSKVSVFHVKLTDSALRAFESYRARQDSVSLRPSIRFQGSQGHISIPQPDCPAEARTFSFYLSNIGRDNPQGSFDCIQQYVSSHGEVHLDCLGSIQDKITVCATDDSYQKARQSMAQAEEETRSRSAIVIKAGGRYLGKKVQFRK | not soluble
13 | MSLSSASSKRSVMTLFSNKDDIYCHQVKIVLAEKGVLYENAEVDLQALPEDLMELNPYGTVPTLVDRDLVLFNSRIIMEYLDERFPHPPLMQVYPVSRAKDRLLMLRIEQDWYPTLAKAENGTEKEKTSALKQLKEELLGIAPIFQQMPYFMNEEFGLVDCYVAPLLWKLKHLGVEFTGTGSKAIKAYMERVFTRDSFLQSVGEAAPKNLMDDKEGHHHHHH | soluble
14 | MLTNEQLAALRSRLLDMKRETEDRLKQNDHFGMIRSHAHDAVGELASYDNHPADEATELYEREKDLALKEHAERELREIERALGAIADGTYGTCRVCGRPIPYERLEALPTTLYCREHSPDQTVSQKRPLEEGVLMPPFGKFDFDDRAESVAYDAEDAWQEVARYGTSDTPSDLGKNVDSYSEVYAESEENVGYVEDLENFAAVDLHGQHVRVYPTREHELLENILDDEGIMSNIGDLPAYEKDPYTSKDSYRRYDERPSQQHFGETTP | not soluble
